Measurements published in PMC10766600 (2024).
Values joined by “and” are separate entries in the source; they are usually repeats but may differ in a detail not shown here. Equal values may be shown once.

B1: bacteriophage T5 capsid-like particles (T5 CLPs) (complex)
chain: AVNQSSSVEVSSESYETIFSQRIIRDLQKELVVGALFEELPMSSKILTMLVEPDAGKATWVAASTYGTDTTTGEEVKGALKEIHFSTYKLAAKSFITDETEEDAIFSLLPLLRKRLIEAHAVSIEEAFMTGDGSGKPKGLLTLASEDSAKVVTEAKADGSVLVTAKTISKLRRKLGRHGLKLSKLVLIVSMDAYYDLLEDEEWQDVAQVGNDSVKLQGQVGRIYGLPVVVSEYFPAKANSAEFAVIVYKDNFVMPRQRAVTVERERQAGKQRDAYYVTQRVNLQRYFANGVVSGTYAAS

Legend:
Experiment in all cases: SPR
[1] = target: pO: full-length pb10 fused at its C-terminal end with ovalbumin (bacteriophage T5 | , UniProt Q6QGD6 1-164)
[2] = target: pNO: N-terminal capsid-binding domain pN of pb10 fused at its C-terminal end with ovalbumin (bacteriophage T5 | , UniProt Q6QGD6 1-73)
[3] = target: pNmC: N-terminal capsid-binding domain pN of pb10 fused at its C-terminal end with mCherry (bacteriophage T5 | , UniProt Q6QGD6 1-73)
[4] = target: pmC: full-length pb10 fused at its C-terminal end with mCherry (bacteriophage T5 | , UniProt Q6QGD6 1-164)
[5] = target: B1

| Binder | Kd [1] [pM] | koff [1] [s⁻¹] | Kd [2] [pM] | koff [2] [s⁻¹] | Kd [3] [pM] | koff [3] [s⁻¹] | Kd [4] [pM] | koff [4] [s⁻¹] | koff [5] |
| --- | --- | --- | --- | --- | --- | --- | --- | --- | --- |
| B1 | 2.3 | 0.00035 | 1.2 | 0.00023 | 0.9 | 0.00011 | 1.4 | 0.0002 |  |
| decoration protein pb10 of bacteriophage T5, full length (natural protein, DNA-free expanded capsid lacking pb10 (T5 dec deletion, stAmN5). Mature pb8 after removal of the scaffolding domain; limits from the UniProt chain feature, matching the 299 aa entity of PDB 6OMC/6OMA. Minor capsid components (portal) not included.) MIDYSGLRTIFGEKLPESHIFFATVAAHKYVPSYAFLRRELGLSSAHTNRKVWKKFVEAYGKAIPPAPPAPPLTLSKDLTASMSVEEGAALTLSVTATGGTGPYTYAWTKDGSPIPDASGATYTKPTAAAEDAGSYKVTVTDSKQVSKDSTTCAVTVNPTVPGG |  |  |  |  |  |  |  |  | 0.00019 s⁻¹ and 0.0003 s⁻¹ |
